# Laboratory results: the nanobody polyreactivity screen of Harvey et al. (2022)
# Assay: yeast display, Sf9 membrane polyspecificity reagent, FACS + sequencing; frameworks hold sequencing errors
# Summary of the method: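 Sorting gates, low and high (top ~1%), were placed on anti-HA fluorescence to track expression and on streptavidin fluorescence to track reagent binding. A clone's polyreactivity label is taken from the gate it came out of. The reagent was 10% biotinylated, detergent-solubilized Sf9 membrane, applied for 1 hour at 4 °C to galactose-induced yeast display cells.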
row,Sequence,polyreactivity (PSR sort gate)
1,QVQLVESGGGLVQAGGSLRISCAPSGSTFYTNAMGWYRQAPGKEREFVAAISWSGSSTYADSVKGRFTISRDNAKNTVYLQMNSLKPEDTAVYYFAADWFKLRTDYYWGQGTQVTVSS,low polyreactivity
2,HVQLQESGGGLVQAGGSLRLSCAASGNISYSRNMGWYRQAPGKERELVAAIDRGAITYYADSVKGRFTISRDNATNTVYLQIYSLKPEDTAVYYCAAEYHDRWDHRYWGQGTQVTVSS,high polyreactivity
3,QVQLQESGSGLVQAGGSLRLSCAASGAIFPAYLMGWYRQAPGKERELVAGISYGSITYCADSVKGRFNISRDNEKNTVYLQMNSLKPEDTAVYYCAVWRPGGDEYYYWGQGTQVTVSS,low polyreactivity
4,QVQLVESGGGLVQAGGSLRLSCAASGSIVDYNAMGGYRQAPGKERELVAAISVNGGNTYYADSVKGRFTISRDYAKNTVYFQMNTLKPEDTAVYYCAADSYGGSKYDYWGQGTQVTLSS,low polyreactivity
5,QVQLVESVGGLVQAGGSLRLSCAASGSIFDRYAMGWYRQAPGKERELVAAISTGGSTNYADSVKGRFTISRDNAKNTVYLQMNSLKPEDTAVYYCAARYLYRMYYWGQGTQVTVSS,low polyreactivity
6,QVQLVESGGGLVQAGGSLRLSCAASGYIFDRYAMGWYRKAPGKEREMVAPISGRGGSTYYADSVKGRFSISRDNAKNTVFLQMNSLKPEDTAVYYCARDVYVRNGQRARYVSWGQGTQVTVSS,high polyreactivity
7,QVQLVESGGVLVQAGGSLRLSCAASGFIFSSNAMGWCREAPGKERELVAAITGGGGRTRYADSVKGRFTISRDNAKNTVYLQMNSLKPEDTAVYYCAAEVYSIWWYDYWGQGTQVTVSS,high polyreactivity
8,QVQLVESGGGLVQAGGSLRLSCAASGIIFYKYAMGWYRQAPGKERELVAAITSGGGRTYYADSVKGRFTISRDNAKNTVYLQMNSLKPEDTAVYYCNADTYSAGDYWGQGTQVTVSS,high polyreactivity
9,QVQLVESGAGLVQAGGSLRLSCAASGYIFYKNAMGWYRQAPGKERELVAAISTRGGSTYYADSVKGRFTISRDNAQNTVYLHMNSLKPEDTAVNYCAASQNRRDWGQGTQVTVSS,high polyreactivity
10,QVQLVESGGGLLQAGGSLRLTCAASGRIFGRYAMGWYRQAPGKERELVAAISYSGGSTRYADSVKGRFTISRDNSKNTVYLQMNSLKPEDTAVYYCAAARRFSTHEYWGQGTQVTVSS,high polyreactivity
11,QVQLVESGGGLVQAGGSLRLSCAASGSIFTPNAMGWYRQAPGKERELVAAISSSSDRTSYADSVKGRFTISRDNAKYTVYLQMNSLKPEDTAVYYCAAYSQKRYYWGQGTQVTVSS,high polyreactivity
12,QLQLVESGGGLVQAGGSLRLSCAASGSIFHRYAMGWYRQAPGKEREFVAAISGRGGSTYYADSVKGRITISRDNAKNTVYLQMNSLKPEDTAVYYCAADSSLFYGRPRYYYWGQGTQVTVSS,high polyreactivity
13,QVQLVESGGGLVQAGGSLRLSCAASGRIFYRYAMGWYRQAPGKERELVAAITGSGGRTYADSVKGRFTISRDNAKNTVYLQMNSLKPEDTAVYYCNDRSFCPTESRYDYWGQGTQVTVSS,high polyreactivity
14,QVQLVESGGGLVQAGGSLRLSCAASGRIFSNNAMGWYRQAPGKERELVASIDSGDSTTYADSVKGRFTISRDNAKNTVYLQMNSLKPEDTAVYYCNAGPAEADYDYWGQGTQVTVSS,high polyreactivity
15,QVQLVESGGGLVQAGGSLRLSCAASASIFYRNAMGWYRQAPGKERELVAGITTRGGSTYYADSVKGRFTISRDNAKNTVYLQMNSLNPEDTAVYYCNRRFPIYGSRFGYYYWGQGTQVTVSS,high polyreactivity
16,QDQLVESGGGLVQAGGSLRLSCAASGIISYKNVMGWYRQAPGKERELDAAITSGGSTNYADSVKGRFTISRDNAKNTVYLQMNSLKPEDTAVYYCAARYYGSYGKQPRARYGYWGQGTQVTVSS,high polyreactivity
17,QVQLVESGGGLVKAGGSLRLSCAASGRTFGWYVMGWYRQAPGKEMELVAAISLRGGTTYYADSVKGRFTISRDNAKNTVYLQMNSLNPEDTAVYYCAIAGIRHVTCKFKGYHFGYWGQGTQVTVSS,low polyreactivity
18,QVQLVESGGGLVQAGGSLRLSCAASGRIFDYNDMGWYRQAPGTERELVAGISSGGSTYYADSVKGRFTISRDNAKNTVYLQMNSLKPEDTAVYYCAAGGRPYRGYGYWGQGTQVTVSS,high polyreactivity
19,QVQLVESGGGLVQAGGSLRLSCAASGSTFYTYAMGWYRQAPGKERELVAAITYSGGTTYYADSVKGRFTISRDNAKNTVYLQMNSLKPEDTAVYYCNTRSYYYSDDYWGQGTQVTVSS,low polyreactivity
20,QVQLGESGGGLVQAGGSLRLSCAASGGTFYYYAMGWYRHAPGKERELVATISYSGASTYYADSVKGRFTISRDNAKNTVYLQRNSLKPEDTAVYYCNARPYNHRYRAWMDYWGQGTQVTVSS,high polyreactivity
21,QVQLVESGGGLVQAGGSLRLSCAASGSTFKKYAMGWYRQAPGKERELVAAITGSGGRTYYADSVKGRFTISRDTAKNTVYLQMNSLKPEDTAVYYCANLNNYGYDYWGQGTQVTVSS,high polyreactivity

row,Sequence,polyreactivity (PSR sort gate)
1,QVQLVESGGGLVQEGGSLRLSCAASGRIFDENAMGWYRQAPGKERELVAAISSGDSTKYADSVKGRFTISRDNAKNTVYLQMNSLKPEDTAVYYCAAARNHGLVGSESVGRNDYWGQGTQVTVSS,low polyreactivity
2,QVQLVESGGGLVQAGGSLRLSCAASGFIFFYAMGWYRQAPGKERELVASIDSGVSTDYADSVKGRFTISRDNAKNTVYLQMNSLTPEDTAVYYCAADPWSSLNYDYWGQGTQVTVSS,low polyreactivity
3,QVQLVESGGGLVQAGGSLRLSCAPSGSIFGVYAMGWYRQAPGKERELVAAISSRGSSTYYADSVKGRFTISRDNAKNTVYLQMNSLKPEDTAVYYCAARPGIRSYPPGYGYWGQGTQVTVSS,high polyreactivity
4,QVQLVESGGGLVQAGGSLRLICAASGSTFWPYARGWYRQAPGNERELVAAITWSGGRTYYADSVKGRFTISRDNAKNTVYLQMNSLKPEDTAVYYCAADSYVLGRWYGYWGQGTQVTVSS,low polyreactivity
5,QVQLVESGGGLVQAGGSLRLSCAASGSIFRINDMGWYRQAPGKERELVAAITFSGGSTYADSVKGRFTISRDNAKNTVNLQMNSLKPEDTAVYYCNADGAYWTDYYLYDYWGQGTQVTVSS,low polyreactivity
6,QVQLVESGGGLVQAGGSLRLSCAASGRTYGGNAMGWYRQAPGKERELVAAITVSAGHTYYADSVKGRFTISRDNAKNTVYLQMKSLKPEDTAVYYCAKVYHWYYSYDYWGQGTQVTVSS,low polyreactivity
7,QVQLVESGGGLVQAGGSLRLSCAASGSIYTRYPMGWYRQAPGKERELVAAISINGGSTYYADSVKGRFTISRDNAKNTVYLHMNSLKPEDTAVYYCARHYYRWNNFLYLSGYYWGQGSQVTVSS,high polyreactivity
8,QVQLQESGGGLVQADGSLRLSCAASGSIFGYYNMGWYRQAPGKHRELVATINLCRITNYADSVKGRFTISRDNATNTVYVEMHSLNPDDTAVFYCAADEYAQRDLGYWGQGTQVTVSS,low polyreactivity
9,QVQLVESGGGLVQAGGSLRLSCAASGRIFRTNAMGWYRQAPGKEREFVAAISKDGGRTYYADSVKGRFTISRDNAKNTVYLQMNSLKPEDTAVYYCNVLVKHSTTTYSTYDYWGQGTQVTVSS,high polyreactivity
10,QVQLVESGGGLVQAGGSLRLSCAASGRIFRYYAMGWYRQAPGKERELVAAISSSGGSTYYADSVKGRFTISRDNAKNTVDLQMNSLKPEDTAVYYCAAKYSRRSSVSYYYWGQGTQVTVSS,high polyreactivity
11,QVQLVESGGGLVQAGGSLRLSCAASGFTFVFYAMGWYRQAPGKERELVAAISSRGGSTYYADSVKGRFTISRDNAKNTVDLQMNSLKPEDTAVYYCNVVSTYWTTYEEYYWGQGTQVTVSS,high polyreactivity
12,QVQLVESGGGLVQAGGSLRLSCAASGSTFQHYAMGWYRQAPGKERELVAAITNTGGSTYYADSVKGRFTISRDNAKNTVDLQMNSLKPEDTAVYYCATVGRRYGYPGDYWGQGTQVTVSS,low polyreactivity
13,QVQLVESGGGLVQAGGSLRLTCAASGSTFYSYTMGWYRQAPGKERELVAVISSSGGRTYYADSVKGRFTISRDNAKNTVYFQMNSLKPEDTAVYYCAASQRGYFDYRLWSFRSDSWGQGTQVTVSS,high polyreactivity
14,QVQLVESGGGLVQAGGSLRLSCAASGSTFTAYAMGWYRQAPGKERELVADISDSGGSTYYADSVKGRFTISRDNAKNTVYLQMNSLKPEDTAVYYCAAAWVFKKGFGTEMDYWGQGTQVTVSS,low polyreactivity
15,QDQPVDSGRCLVQAGGSLRLSCAASGSTFEVYTMGWYRQAPGQERELVAAITKNGGTTYYADSVKGRFTISRDNAKNTVYLLMNSLKPEDTAVYYCAATWPRYGYGYWGQGTQVTVSS,low polyreactivity
16,QVQLVESGGGLVQAGGSLRLSCAASGIIFYYYAMGWYRQAPGKERELVAAISWSGGSTYYADSVKGRFTISRDNAKNTVYLQMNSLKPDDTAVYYCAAAFSPGWWSRHTYDYDYWGQGTQVTVSS,high polyreactivity
17,QVQLVESGGGLVQAGGSLRLSCAASGRIFARYAMGWYRQAPGKERELVAAISRGGGSTYYADSVKGRFTISRDNAKNTVYLQMNSLKPEDTAVYYCNRLSKQKQEFDYWGQGTQVTVSS,high polyreactivity
18,QVQLVESGGGLVQAGGSLRLSCAASGRIFYTNGMGWYRQAPGKERELVAAITYSGGNTFYADSVKGRFTISRDNSKNTVYLQMNSLKPEDTAVYYCAATFTYLGYWYDYRGQGTQVTVSS,low polyreactivity
19,QVQLVESGGGLVQAGGSLRLSCAPSGSTFARNAMGWYRQAPGKERDLVAAIATSGGRTYYADTVKGRFTISRDIAKNTVYLQMNSLKAEDTAVYYCAAAFSLGMYWGQGTQVTVSS,high polyreactivity
20,QVQLVESGGGLVQAGGSLRLSCAASGFTSNYYAMGWYRQAPGKERELVAAITTGGSTHYADSVKGRFTISRDNAKNTVYLQMNSLKPEDTAVYYCAAGTNRQQQRYFHHGGYYQYNYWGQGTQVTVSS,low polyreactivity
